Results reported in article PMC7962911, “Modular Synthesis of Trifunctional Peptide-oligonucleotide Conjugates via Native Chemical Ligation” (Frontiers in Chemistry, 2021).

Key:
[1] = tested on: SMA patient-derived fibroblasts; assay: Confocal microscopy of Cy5 fluorescent uptake; assay type: cell-based, human; details: 1 and 2 µm in OptiMEM without serum, 1 h at 37°C, Cy5 excitation 633 nm
Method: For fluorescent uptake studies, SMA fibroblast cells were plated at a density of 60,000 cells/well of a µ-Slide 4 Well ^Ph+ Glass Bottom chamber slides precoated with poly-L-ornithine. The cells reached 80% confluency after 24 h. They were treated with Cy5-labelled peptide-PNA conjugates made up at a concentration of 1 and 2 µm in OptiMEM without serum for 1 h at 37°C. At 15 min to the end of incubation time, Hoechst (1:1,000 dilution) was added to each well. Cells were washed with PBS and images of cells were taken using the Leica SP8 Resonant Scanning microscope with 63×/1.4 oil objective. The images were acquired at the Cy5-specific excitation of 633 nm and emission of 638–779 nm and Hoechst excitation and emission of 405 nm and 410–585 nm, respectively.

full-length SMN2 mRNA = assay: SMN2 exon-inclusion assay (RT-qPCR of full-length SMN2 mRNA); assay type: cell-based, human; details: SMA patient-derived fibroblasts (Type-I, GM03813), conjugates 1 and 2 µm in serum-free Opti-MEM for 4 h at 37°C, then growth medium for 20 h, ∆∆Ct vs HPRT1, normalized to untreated = 1, mean ± SEM, N = 3
[2] = concentration range of 20–30 µm; peptides alone and as conjugate to ASOs; ref Neundorf et al., 2009; Shabanpoor et al., 2017; cited from earlier work
From the text: We chose an FDA-approved oligonucleotide sequence (Table 1) targeting survival motor neuron-2 (SMN2) mRNA splice correction as a model ASO (in PNA chemistry) for conjugation to a previously characterized CPP derived from the receptor-binding domain of Apolipoprotein E [ApoE(133–150)] ([Meloni et al., 2020]). In order to synthesize trifunctional conjugates, three different functional moieties were selected for conjugation to the side-chain of […] that was generated during NCL of CPP-ASO. These functional moieties include the FDA-approved oligonucleotide sequence as above but incorporated in ...

In the case of “Ac-LRVRLASHLRKLRKRLLR-X-G-C-X-ATTCACTTTCATAATGCTGG | Cy5 [C2, Cy5-labelled ApoE-PNA conjugate, fluorophore on the cysteine thiol of C1]”, the “uptake in fibroblasts (Cy5 fluorescence)” value [1] is reported as “concentration-dependent increase in uptake”.
In the case of “Ac-LRVRLASHLRKLRKRLLR-X-G-C-X-ATTCACTTTCATAATGCTGG | Mal-ATTCACTTTCATAATGCTGG [C3, trifunctional conjugate of C1 with maleimide-PMO (SMN2) on the cysteine thiol]”, the “antisense activity (change in the level of full-length SMN2 mRNA)” value (full-length SMN2 mRNA) is reported as “higher activity compared to the peptide-PNA (C1) conjugate”.
For “ApoE: previously characterized CPP derived from the receptor-binding domain of Apolipoprotein E (LRVRLASHLRKLRKRLLR; UniProt P02649 151-168, looked up, fragment)”, the cytotoxic effect [2] is listed as “no significant cytotoxic effect”.
